Key:
[1] = test system: CBCA, THCA, and CBDA production; test: In vivo TS activity assay, Example 2 protein engineering of A. niger CBCAS, cultures fed olivetolic acid; type: cell-based, S. cerevisiae; settings: for average CBCA titer compared with the A. niger positive control / Mean CBCA / Mean CBDA / Mean THCA: secondary screen; for Mean CBCA / Mean CBDA / Mean THCA: olivetolic acid (Table 8); for % CBCA / % CBDA / % THCA: share of terminal cannabinoid product profile
Experimental: (§1) An assay to detect TS activity was conducted as follows: each thawed glycerol stock of candidate CBCAS transformants was stamped into a well of YEP+4% dextrose media. Samples were incubated at 30° C. in a shaking incubator for 2 days. A portion of each of the resulting cultures was stamped into a well of YEP+4% galactose+1 mM olivetolic acid (FIG. 1 Structure 6a). Samples were incubated at 20° C. and shaken in a shaking incubator for 4 days. Every 24 hours during those 4 days, 2% galactose and 1 mM olivetolic acid were spiked into the cultures. Sodium citrate buffer adjusted to pH 5.5 was added to each well at a final concentration of 100 mM. Samples were incubated at 20° C. and shaken in a shaking incubator for 2 days. A portion of each of the resulting production cultures was stamped into a well of phosphate buffered saline (PBS). Optical measurements were taken on a plate reader, with absorbance measured at 600 nm and fluorescence at 528 nm with 485 nm excitation. Samples were incubated at 30° C. in a shaking incubator for 2 days. 100% methanol was stamped into the production cultures in half-height deepwell plates. Plates were heat sealed and frozen. Samples were then thawed for 30 min and spun down at 4° C. A portion of the supernatant was stamped into half-area 96 well plates. CBCA, THCA, and CBDA production in the samples was quantified via liquid chromatography-mass spectrometry (LC-MS).
(§2) To determine whether engineering of the A. niger CBCAS identified in Example 1 (corresponding to SEQ ID NO: 29 (with signal peptides); SEQ ID NO: 27 (without signal peptides and including an N-terminal methionine (UniProt accession No. A0A254UC34)); or SEQ ID NO: 25 (without signal peptides and without the N-terminal methionine)), could alter CBCAS substrate specificity, product specificity and/or amounts of products produced, point mutations were generated in A. niger CBCAS and the mutant versions of the protein were expressed in S. cerevisiae. A library containing 1047 A. niger CBCAS mutants was generated and screened. As in Example 1, each CBCAS mutant in the library, as well as the enzymes expressed by positive control strains, included an N-terminal MFalpha2 signal peptide (SEQ ID NO: 16) (with a methionine residue added at the N-terminus of the MFalpha2 signal peptide) and a C-terminal HDEL signal peptide (SEQ ID NO: 17).
Production of compounds of Formulae (9), (10), and/or (11), including compounds of Formulae (9a), (10a), and/or (11a) by strains expressing the mutated versions of A. niger CBCAS was quantified and compared to the production of the same compounds by a strain expressing wild-type A. niger CBCAS, a strain expressing a C. sativa THCAS, and a strain expressing a C. sativa CBDAS. The strains were screened using the same assay described in Example 1. Production of CBCA, THCA, and/or CBDA in the samples was quantified via LC-MS.
(§3) Of the original 1047 library members, 55 strains were elevated to a secondary screen to verify CBCA production. The experimental protocol for the secondary screen was identical to the primary screen, except that additional biological replicates were included per strain, and replicate production cultures for each strain were separately fed 1 mM boluses of olivetolic acid or 1 mM boluses of divaric acid. All strains were screened in quadruplicate.

[2] = test system: CBCVA, THCVA, and CBDVA production; test: In vivo TS activity assay, Example 2 protein engineering of A. niger CBCAS, cultures fed divaric acid; type: cell-based, S. cerevisiae; settings: for Mean CBCVA / Mean CBDVA / Mean THCVA: S. cerevisiae strains expressing A. niger CBCAS mutants; for Mean CBCVA / Mean CBDVA / Mean THCVA / average CBCVA titer compared with the A. niger positive control: secondary screen; for Mean CBCVA / Mean CBDVA / Mean THCVA / % CBCVA / % CBDVA / % THCVA: fed divaric acid; for % CBCVA / % CBDVA / % THCVA: share of terminal cannabinoid product profile
Experimental: as §1, §2, §3

Molecule	average CBCA titer compared with the A. niger positive control [1]	Mean CBCA [1]	Mean CBDA [1]	Mean THCA [1]	% CBCA [1]	% CBDA [1]	% THCA [1]	Mean CBCVA [2]	Mean CBDVA [2]	Mean THCVA [2]	% CBCVA [2]	% CBDVA [2]	% THCVA [2]	average CBCVA titer compared with the A. niger positive control [2]
t865805 (protein, expressed in S. cerevisiae strain) MGNTTSIAGRDCLISALGGNSALAVFPNELLWTADVHEYNLNLPVTPAAITYPESAAQIAGVVKCASDYDYKVQARSGGHSFGNYGLGGADGAVVVDMKHFTQFSMDDETYEAVIGPGTTLNDVDTELYNNGKRAMAHGVCPTIKTGGHFTIGGLGPTARQWGLALDHVEEVEVVLANSSIVRASNTQNQDVFFAVKGAAANFGIVTEFKVRTEPAPGLAVQYSYTFNLGSTAEKAQFVKDWQSFISAKNLTRQFYNNMVIFDGDIILEGLFFGSKEQYDALGLEDHFAPKNPGNILVLTDWLGMVGHALEDTILKLVGNTPTWFYAKSLGFRQDTLIPSAGIDEFFEYIANHTAGTPAWFVTLSLEGGAINDVAEDATAYAHRDVLFWVQLFMVNPVGPISDTTYEFTDGLYDVLARAVPESVGHAYLGCPDPRMEDAQQKYWRTNLPRLQELKEELDPKNTFHHPQGVMPA	higher	34567.68 µg/L	8917.97 µg/L	2285.23 µg/L	75.52%	19.48%	4.99%	3077.84 µg/L	0.00 µg/L	1538.55 µg/L	66.67%	0.00%	33.33%	
t865711 (protein) MGNTTSIAGRDCLISALGGNSALAVFPNELLWTADVHEYNLNLPVTPAAITYPETAAQIAGVVKCASDYDYKVQARSGGHSFGNYGLGGADGAVVVDMKHFTQFSMDDETYEAVIGPGTTLGDVDIELYNNGKRAMAHGVCPTIKTGGHFTIGGLGPTARQWGLALDHVEEVEVVLANSSIVRASNTQNQDVFFAVKGAAANFGIVTEFKVRTEPAPGLAVQYSYTFNLGSTAEKAQFVKDWQSFISAKNLTRQFYNNMVIFDGDIILEGLFFGSKEQYDALGLEDHFAPKNPGNILVLTDWLGMVGHALEDTILKLVGNTPTWFYAKSLGFRQDTLIPSAGIDEFFEYIANHTAGTPAWFVTLSLEGGAINDVAEDATAYAHRDVLFWVQLFMVNPFGPISDTTYEFTDGLYDVLARAVPESVGHAYLGCPDPRMEDAQQKYWRTNLPRLQELKEELDPKNTFHHPQGVMPA	higher	33994.02 µg/L	9666.71 µg/L	2096.22 µg/L	74.29%	21.13%	4.58%	2442.93 µg/L	0.00 µg/L	1315.45 µg/L	65.00%	0.00%	35.00%	
t865714 (protein) MGNTTSIAGRDCLISALGGNSALAVFPNELLWTADVHEYNLNLPVTPAAITYPETAAQIAGVVKCASDYDYKVQARSGGHSFGNYGLGGADGAVVVDMKHFTQFSMDDETYEAVIGPGTTLNDVDIELYNNGKRAMAHGVCPTIKTGGHFTIGGLGPTARQWGLALDHVEEVEVVLANSSIVRASNTQNQDVFFAVKGAAANFGIVTEFKVRTEPAPGLAVQYSYTFNLGSTAEKAQFVKDWQSFISAKNLTRQFYNNMVIFDGDIILEGLFFGSKEQYDALGLEDHFAPKNPGNILVLTDWLGMVGHALEDTILKLVGNTPTWFYAKSLGFRQDTLIPSAGIDEFFEYIANHTAGTPAWFVTLSLEGGAINDVAEDATAYAHRDVLFWVQLFTVNPVGPISDTTYEFTDGLYDVLARAVPESVGHAYLGCPDPRMEDAQQKYWRTNLPRLQELKEELDPKNTFHHPQGVMPA	higher	32311.22 µg/L	6827.61 µg/L	2172.74 µg/L	78.21%	16.53%	5.26%	1775.08 µg/L	0.00 µg/L	1101.76 µg/L	61.70%	0.00%	38.30%	
t865743 (protein) MGNTTSIAGRDCLISALGGNSALAVFPNELLWTADVHEYNLNLPVTPAAITYPETAAQIAGVVKCASDYDYKVQARSGGHSFGNYGLGGADGAVVVDMKHFTQFSMDDETYEAVIGPGTTLNDVDIELYNNGKRAMAHGVCPTIKTGGHFTIGGLGPTARQWGLALDHVEEVEVVLANSSIVRASNTQNQDVFFAVKGAAANFGIVTEFKVRTEPAPGLAVQYSYTFNLGSTAEKAQFVKDWQSFISAKNLTRQFYNNMMIFDGDIILEGLFFGSKEQYDALGLEDHFAPKNPGNILVLTDWLGMVGHALEDTILKLVGNTPTWFYAKSLGFRQDTLIPSAGIDEFFEYIANHTAGTPAWFVTLSLEGGAINDVAEDATAYAHRDVLFWVQLFMVNPVGPISDTTYEFTDGLYDVLARAVPESVGHAYLGCPDPRMEDAQQKYWRTNLPRLQELKEELDPKNTFHHPQGVMPA	higher	58061.40 µg/L	11245.27 µg/L	3389.10 µg/L	79.87%	15.47%	4.66%	4972.60 µg/L	0.00 µg/L	2989.22 µg/L	62.46%	0.00%	37.54%	higher
t878470 (protein, expressed in S. cerevisiae strain) MGNTTSIAGRDCLISALGGNSALAVFPNELLWTADVHEYNLNLPVTPAAITYPETAQQIAAVVKCASDYDYKVQARSGGHSFGNYGLGGADGAVVVDMKHFTQFSMDDETYEAVIGPGTTLNDVDIELYNNGKRAMAHGVCPTIKTGGHFTIGGLGPTARQWGLALDHVEEVEVVLANSSIVRASNTQNQDVFFAVKGAAANFGIVTEFKVRTEPAPGLAVQYSYTFNLGSTAEKAQFVKDWQSFISAKNLTRQFYNNMVIFDGDIILEGLFFGSKEQYDALGLEDHFAPKNPGNILVLTDWLGMVGHALEDTILKLVGNTPTWFYAKSLGFRQDTLIPSAGIDEFFEYIANHTAGTPAWFVTLSLEGGAINDVAEDATAYAHRDVLFWVQLFMVNPVGPISDTTYEFTDGLYDVLARAVPESVGHAYLGCPDPRMEDAQQKYWRTNLPRLQELKEELDPKNTFHHPQGVMPA	higher	64502.70 µg/L	10538.52 µg/L	2739.24 µg/L	82.93%	13.55%	3.52%	3226.77 µg/L	0.00 µg/L	1646.54 µg/L	66.21%	0.00%	33.79%	
t865729 (protein) MGNTTSIAGRDCLISALGGNSALAVFPNELLWTADVHEYNLNLPVTPAAITYPETAEQIAGVVKCASDYDYKVQARSGGHSFGNYGLGGADGAVVVDMKHFTQFSMDDETYEAVIGPGTTLNDVDIELYNSGKRAMAHGVCPTIKTGGHFTIGGLGPTARQWGLALDHVEEVEVVLANSSIVRASNTQNQDVFFAVKGAAANFGIVTEFKVRTEPAPGLAVQYSYTFNLGSTAEKAQFVKDWQSFISAKNLTRQFYNNMVIFDGDIILEGLFFGSKEQYDALGLEDHFAPKNPGNILVLTDWLGMVGHALEDTILKLVGNTPTWFYAKSLGFRQDTLIPSAGIDEFFEYIANHTAGTPAWFVTLSLEGGAINDVAEDATAYAHRDVLFWVQLFMVNPVGPISDTTYEFTDGLYDVLARAVPESVGHAYLGCPDPRMEDAQQKYWRTNLPRLQELKEELDPKNTFHHPQGVMPA	higher	32213.25 µg/L	8392.06 µg/L	1856.57 µg/L	75.86%	19.76%	4.37%	3685.70 µg/L	0.00 µg/L	1839.38 µg/L	66.71%	0.00%	33.29%	higher

Reference: US20230137139A1, “BIOSYNTHESIS OF CANNABINOIDS AND C[…]” (priority 2020, published 2023)
